Test results from patent publication US20260250737A1, “Engineered Luciferases and Luciferin Substrates” (Monod Bio, Inc., priority 2023, published 2026).
Changes are numbered by the printed parent chain. Names and notes keep the numbering of the source.

B1: MBIO-5338: LgLux_4039 variant T41A, H92Q; SEQ ID NO 2800 (protein)
chain: MSEEQIRQNLRRFYEALDSGDAITAASLFDPGVTITLWDGATFTSVEEFREWFESQFSTSKDALREISSLEVRGDTVEVTVRLSFTRNGQKQTVDLLQLFKFV
B2: MBIO-5339: LgLux_4039 variant R11L, I23V; SEQ ID NO 2801 (protein)
chain: B1 chain with R11L, I23V, A41T, S45T, Q92H
B3: MBIO-5342: LgLux_4039 variant E54G, S55T, R87S; SEQ ID NO 2802 (protein)
chain: B1 chain with A41T, E54G, S55T, R87S, Q92H
B4: MBIO-5341: LgLux_4039 variant P31S; SEQ ID NO 2803 (protein)
chain: B1 chain with P31S, A41T, Q92H
B5: MBIO-5340: LgLux_4039 variant S2T, I6L, R11L, E48K; SEQ ID NO 2804 (protein)
chain: B1 chain with S2T, I6L, R11L, A41T, E48K, Q92H
B6: SEQ ID NO 2805: LgLux_4039 variant S19C (protein)
chain: B1 chain with S19C, A41T, Q92H
B7: LgLux_4039: Large Lux fragment of MBIO-4039 (protein)
chain: B1 chain with A41T, Q92H
B8: SEQ ID NO 2806: LgLux_4039 EP-PCR mutant N9S (protein)
chain: B1 chain with N9S, A41T, Q92H
B9: SEQ ID NO 2807: LgLux_4039 EP-PCR mutant L99Q (protein)
chain: B1 chain with A41T, Q92H, L99Q
B10: SEQ ID NO 2808: LgLux_4039 EP-PCR mutant K101E (protein)
chain: B1 chain with A41T, Q92H, K101E
B11: SEQ ID NO 2809: LgLux_4039 EP-PCR mutant N9D, V103I (protein)
chain: B1 chain with N9D, A41T, Q92H, V103I
B12: SEQ ID NO 2810: LgLux_4039 EP-PCR mutant F43L (protein)
chain: B1 chain with A41T, F43L, Q92H
B13: SEQ ID NO 2811: LgLux_4039 EP-PCR mutant N9I, N88D (protein)
chain: B1 chain with N9I, A41T, N88D, Q92H
B14: SEQ ID NO 2812: LgLux_4039 EP-PCR mutant L64F (protein)
chain: B1 chain with A41T, L64F, Q92H
B15: SEQ ID NO 2813: LgLux_4039 EP-PCR mutant T34I (protein)
chain: B1 chain with T34I, A41T, Q92H
B16: SEQ ID NO 2814: LgLux_4039 EP-PCR mutant E51V, K61T (protein)
chain: B1 chain with A41T, E51V, K61T, Q92H

Assays:
Type in all cases: biochemical
[1] = tested on: construct containing Small Lux (SmLux), Large Lux (LgLux), FKBP and FRB; assay: LuxSit split optimization: SmLux-LgLux-FKBP-FRB construct on the surface of yeast, rapamycin-induced signal; conditions: Table 19, LgLux variants, 50 uM substrate 1c; for Fold change upon Rap addition: 20 uM Rapamycin
Description: To optimize the function of the LuxSit Splits, a construct containing Small Lux (SmLux), Large Lux (LgLux) and the proteins that bind the molecule Rapamycin (FKBP and FRB), connected by GS linkers, was expressed on the surface of yeast. When 50 uM of substrate 1c is added to yeast expressing this construct, a baseline signal is observed due to SmLux and LgLux reconstitution. When 20 uM of Rapamycin is added, SmLux and LgLux are brought closer to each other by FKBP and FRB, enhancing their reconstitution. As a result, an increase in signal is observed.
Libraries of SmLux and LgLux were assembled and tested independently to identify variants with lower baseline and higher fold change.

SmLux [2] = assay: LgLux stability optimization: error-prone PCR LgLux mutants on yeast, protease treatment, SmLux complementation; conditions: Table 20, EP-PCR LgLux mutants on yeast, 50 uM substrate 1c; for Fold change upon SmLux peptide addition: 200 nM SmLux
Description: LgLux mutants were generated by error-prone PCR (EP-PCR) and treated with protease and their activity measured as depicted schematically in FIG. 44.
Yeast expressing a library of the LgLux mutants were incubated with proteases and screened to select variants that were stable enough to resist proteolysis. Functional variants were selected by adding 50 uM of substrate 1c and 200 nM of SmLux.
The nucleotide sequence encoding LgLux_4039 was subjected to EP-PCR to identify protease-stable mutants. The sequences (SEQ ID NOs: 2806-2814) and activity of the mutants are summarized below in Table 20.

SmLux [3] = assay: Computationally generated LgLux variants expressed in E. coli, tested in lysates with SmLux and substrate 1c
Procedure, shortened: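 Variants expressed in E. coli and screened as lysates, complemented with 20 uM SmLux and given 50 uM substrate 1c; luminescent activity measured.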

Row | Molecule | Baseline Signal (Normalized by expression) [1] | Fold change upon Rap addition [1] | Baseline Signal (Normalized by expression) (SmLux [2]) | Fold change upon SmLux peptide addition (SmLux [2]) | further results
1 | B1 | 18945.1 | 2.2 | – | – | –
2 | B2 | 28286 | 1.9 | – | – | –
3 | B3 | 3361.4 | 2 | – | – | –
4 | B4 | 10433.7 | 2.2 | – | – | –
5 | B5 | 6666.1 | 2.2 | – | – | –
6 | B6 | 3667.6 | 2 | – | – | –
7 | B7 | 22064.6 | 1.9 | 417.8 | 78.5 | Fold change upon SmLux peptide addition (SmLux [3]; 20 uM SmLux, 50 uM substrate 1c): 214.43; Baseline Signal (Normalized by expression) (SmLux [3]; 50 uM substrate 1c, before SmLux peptide addition): 299.2; Fold change upon SmLux peptide addition (SmLux [3]; Table 22, 20 uM SmLux, 50 uM substrate 1c): 360.49; Baseline Signal (Normalized by expression) (SmLux [3]; Table 22, 50 uM substrate 1c): 1766.6
8 | B8 | – | – | 973.7 | 126.7 | –
9 | B9 | – | – | 738.4 | 83.3 | –
10 | B10 | – | – | 228.3 | 86.8 | –
11 | B11 | – | – | 638.6 | 170 | –
12 | B12 | – | – | 327.2 | 81.7 | –
13 | B13 | – | – | 232.7 | 55.5 | –
14 | B14 | – | – | 233.2 | 61.7 | –
15 | B15 | – | – | 241.6 | 52 | –
16 | B16 | – | – | 934.2 | 53.1 | –
